To fix the notation:
B1: 75110_08H11A (antibody, V domains shown)
VH: EVQLVESGGGLVQPGGSLRLSCAASGFTFSSYDMHWVRQATGKGLEWVSTIGTAGDTYYPGSVKGRFTISRENAKNSLYLQMNSLRAGDTAVYYCARGGYSYYGMDVWGQGTTVTVSS
VL: EIVLTQSPGTLSLSPGERATLSCGASQSVSSTYLAWYQQKPGQAPRLLIYGASSRATGIPDRFSGSGSGTDFTLTISRLEPEDFAVYYCQQFGSSPFTFGPGTKVDIK
notes: Tested as non-clonal hybridoma supernatant from AlivaMab Mouse Kappa mice, detected with anti-mouse Fc and anti-human Kappa
B2: 75110_10N21A (antibody, V domains shown)
VH: B1 VH with A40V, S101Y
VL: B1 VL with G24R, V29F, S30I, T32S, E80D, F92S, S94N, I107V
notes: as for B1
B3: 75110_13C07A (antibody, V domains shown)
VH: B1 VH with G10V, S31N, I69L, N83H, G99A, S101G
VL: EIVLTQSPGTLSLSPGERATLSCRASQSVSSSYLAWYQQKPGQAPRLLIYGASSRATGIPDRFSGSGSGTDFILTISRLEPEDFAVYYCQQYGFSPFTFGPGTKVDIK
notes: as for B1
B4: 75110_08H06A (antibody, V domains shown)
VH: B1 VH with S31N, S101D
VL: B1 VL with G24R, V29I, S30T, T32I, Q38R, F92Y
notes: as for B1
B5: 75110_14H13A (antibody, V domains shown)
VH: B1 VH with S31N, E72K, N83I, Y100D, S101Y
VL: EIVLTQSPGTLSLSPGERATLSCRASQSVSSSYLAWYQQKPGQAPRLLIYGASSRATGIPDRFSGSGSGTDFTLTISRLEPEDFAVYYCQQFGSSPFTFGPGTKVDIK
notes: as for B1
B6: CD8B362 (antibody, human IgG1, kappa, V domains shown)
VH: EVKLVESGAELVKPGASVKLSCTASGFNIKDTYMHWVKQRPEQGLEWIGRIDPANGHTKFDPKFQGKATITADTSSNTAYLQLSSLTSEDTAVYYCAIRFAYWGQGTLVTVSA
VL: DIQMTQSPSSLSASLGDRVSLTCRASHEISGYLSWLQQKPDGTFKRLIYAASTLDSGVPKRFSGSRSGSDYSLSISSLESEDFADYYCLQYSSYPYTFGSGTKLEMKR
notes: Full-length human IgG1, kappa
B7: 75110_04G02A (antibody, V domains shown)
VH: not shown
VL: DIVMTQSPDSLAVSLGERATINCKSSQSVLYSSNNKNYLAWYQQKPGQPPKLLFYWASARESGVPDRFSGSGSGTDFTLTISSLQAEDVALYYCQQYFGSFPTFGQGTKLEIK
notes: Tested as antibody purified from AlivaMab Mouse hybridoma supernatant (captured by anti-mouse IgG Fc)
B8: 75110_05A11A (antibody, V domains shown)
VH: EVQLVESGGGLVKPGGSLTLSCAASGFTFSNTWMSWVRQAPGKGLEWVGRIKSKIDGGTTDYAAPVKGRFTISRDDSKNTLYLQMNSLKTEDTAVYYCTTSGTYSSGWGLFDYWGQGTLVTVSS
VL: DIQMTQSPSSLSASVGDRVTITCQASQDISNYLNWYQQKPGKAPKLLIYDTSNLEAGVPSRFSGSGSGTHFTLTISSLQPEDIATYYCQQYDNLPFTFGGGTRVEIK
notes: as for B7
B9: 75110_01C18A (antibody, V domains shown)
VH: EVQLVESGGGLIQPGGSLRLSCAASGFTVSSNYMNWVRQAPGKGLEWVSVIYAGDNTYSADSVKGRFTISRDNSNNTLCLQMNSLRAEDTAVYYCAREGGTTGAFDIWGQGTMVTVSS
VL: DIQMTQSPSSVSASVGDRVTITCRASQGINSWLAWYQQKPGKAPKLLIYAASSLQSGVPSRFSGSGSGTDFTLTISSLQPEDFATYYCQQGNSFPYTFGQGTKLEIK
notes: as for B7
B10: 75110_03I23A (antibody, V domains shown)
VH: QVQLQESGPGLVKPSETLSLTCTASGGSITSYYWNWIRQPAGKGLEWIGRIYTSGSTNYNPSLKSRVTMSVDTSKNQFSLKLSSVTAADTAVYYCARDPGYSDAFNIWGQGTMVTVSS
VL: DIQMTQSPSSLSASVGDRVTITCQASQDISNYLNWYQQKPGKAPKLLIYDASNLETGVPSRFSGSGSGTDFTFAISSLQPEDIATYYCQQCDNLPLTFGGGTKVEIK
notes: as for B7
B11: 75110_01K10A (antibody, V domains shown)
VH: B1 VH with G10A, S30R, S31N, Y100D, S101Y
VL: B1 VL with G9D, G24R, V29L, T32V, S66T, F92Y
notes: as for B7
B12: 75110_02I18A (antibody, V domains shown)
VH: B1 VH with L4V, S101Y
VL: B1 VL with G24R, T32S, A44S, Y50H, F63V, F92Y
notes: as for B7
B13: 75110_04P06A (antibody, V domains shown)
VH: B1 VH with S31N, Y100D, S101Y
VL: B1 VL with G9D, G24R, V29L, T32V, S77N, A85V, F92Y
notes: as for B7
B14: 75110_05F19A (antibody, V domains shown)
VH: B1 VH with S31N, M34V, A40P, S101D, M105L
VL: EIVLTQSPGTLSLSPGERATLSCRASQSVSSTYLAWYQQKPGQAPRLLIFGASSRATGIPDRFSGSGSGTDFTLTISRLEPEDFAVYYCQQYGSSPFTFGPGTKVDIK
notes: as for B7
B15: 75110_05G15A (antibody, V domains shown)
VH: QVQLQESGPGLVKPSQTLSLTCTVSGGSISSGGYFWSWIRQHPGKGLEWIGCIYYSGSTYYIPSLKSRVTISVDTSKNQFSLKLRSVTAADTAVYYCARDGYDYWYFDLWGRGTLVTVSS
VL: not shown

From patent US20220112288A1 (published 2022) come the findings set out here.

Changes are numbered by the printed parent chain.

For the first experiment, the target named is T1, human CD4 on cells (SKW3 cells; human PBMCs) (human, UniProt P01730 26-458).
T1 construct: whole, on cells; The SKW3 CD4 knockout cells served as the negative cell line; also called hCD4
As to the kind of experiment: FACS confirmation, supernatant on SKW3 WT cells, anti-hu Kappa FITC; background gMFI 2500.
B1: the “gMFI, SKW3 WT anti-hu Kappa FITC” value is 5230 gMFI.
On to B2, for which the “gMFI, SKW3 WT anti-hu Kappa FITC” value was determined as 4060 gMFI.
The same measure, in the same setting: the same measure for B3: 5720 gMFI.
Still for that read-out and setting: the same measure for B4: 6270 gMFI.
As for B5, the “gMFI, SKW3 WT anti-hu Kappa FITC” value turned out to be 6010 gMFI.

The next experiment addresses T1, human CD4 on cells (SKW3 cells; human …). In words: FACS binning on SKW3 cells after supernatant; competitor RPA-T4-PE-Dazzle 594; background 783, max binding 15000.
As for B1, the “RPA-T4-PE-Dazzle 594 signal (FACS binning)” value (“RPA-T4-PE-Dazzle 594 signal” for short) was found to be 3090.
As to B2, the “RPA-T4-PE-Dazzle 594 signal” value turned out to be 6880.
The same measure, in the same setting: as for B3, the figure is 2510.
For B4, the “RPA-T4-PE-Dazzle 594 signal” value was determined as 2480.
With B5, the “RPA-T4-PE-Dazzle 594 signal” value came to 1660.

The target in another experiment is T2, human CD8 on human pan T cells (CD4-negative population) (human, UniProt P01732 22-235; P10966 22-210).
T2 construct: whole, on cells; Target is CD8 as it stands on primary human pan T cells
T2 sequence (P01732 22-235, chain 1 of 2): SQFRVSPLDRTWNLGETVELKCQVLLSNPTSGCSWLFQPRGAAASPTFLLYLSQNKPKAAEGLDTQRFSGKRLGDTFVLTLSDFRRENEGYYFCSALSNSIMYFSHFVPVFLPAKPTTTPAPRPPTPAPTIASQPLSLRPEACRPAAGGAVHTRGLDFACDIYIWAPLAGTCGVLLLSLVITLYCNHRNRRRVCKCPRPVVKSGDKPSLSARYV
T2 sequence (P10966 22-210, chain 2 of 2): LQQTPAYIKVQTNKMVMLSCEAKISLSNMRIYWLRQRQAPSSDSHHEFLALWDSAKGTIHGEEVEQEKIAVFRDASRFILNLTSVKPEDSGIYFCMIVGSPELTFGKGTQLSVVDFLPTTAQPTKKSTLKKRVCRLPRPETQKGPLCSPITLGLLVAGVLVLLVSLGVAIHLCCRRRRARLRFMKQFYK
As to the kind of experiment: flow cytometry, 20 nM antibody on human pan T cells, A647 anti-human IgG Fc; geomean ratio in CD4-negative population. Background: In flow cytometry, cells or beads pass a laser one at a time.
Take B6: the “Cell Binding to Human PanT Signal/Background (of CD4 negative population)” value amounted to 4 signal/background.

The target in the next experiment is T1, human CD4 on cells (SKW3 cells; human …). As to the kind of experiment: FACS binning on SKW3 cells after supernatant; competitor OKT4a, anti-hu A647 secondary; background 5000, max binding 35000.
In the case of B1, the “OKT4a anti-hu A647 signal (FACS binning)” value amounted to 36000.
Same read-out and setting: as for B2, the figure is 40100; as for B3, 38900.
Same read-out and setting: the same measure for B4: 29900; for B5: 14300.

Another experiment has the same target. As to the kind of experiment: FACS primary screen, non-clonal supernatant; SKW3 vs SKW3 CD4 KO cells, anti-mouse Fc 647 detection.
Turning to B1, the “SKW3 WT vs KO, anti-mFc-647 (ratio)” value is 2.8 ratio.
Same read-out and setting: the same measure for B2: 3.1 ratio; for B3: 3.1 ratio.
Same read-out and setting: the same measure for B4: 3 ratio; for B5: 4.8 ratio.

The target of the next experiment is T3, Rhesus macaque CD4-HIS (Acro Biosystems, Cat. CD4-C52H7) (rhesus macaque, UniProt P16003 26-390).
T3 construct: Bought reagent; also called Rhesus CD4; rhesus CD4-HIS; not shown: His tag
T3 sequence (P16003 26-390 limits assumed): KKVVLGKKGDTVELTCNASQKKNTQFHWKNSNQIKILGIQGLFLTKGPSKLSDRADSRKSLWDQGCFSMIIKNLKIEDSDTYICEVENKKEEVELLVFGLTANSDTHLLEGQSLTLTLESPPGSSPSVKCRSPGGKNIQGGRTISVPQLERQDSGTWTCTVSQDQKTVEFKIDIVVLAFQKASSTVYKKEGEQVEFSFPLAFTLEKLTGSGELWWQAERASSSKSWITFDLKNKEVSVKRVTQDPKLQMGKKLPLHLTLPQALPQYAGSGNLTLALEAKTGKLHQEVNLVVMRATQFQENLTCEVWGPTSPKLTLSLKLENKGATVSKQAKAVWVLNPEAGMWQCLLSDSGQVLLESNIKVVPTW
As to the kind of experiment: BLI Octet, mAb on anti-mouse Fc sensor, rhesus CD4-HIS 25-100 nM. (BLI is a label-free optical method that tracks binding on a fibre tip over time.)
For the molecule B7, the binding result is on record as “no binding (tested: 100 nM)”.
As to B8, the binding result is “no binding (tested: 100 nM)”.
On the same count and under the same terms, as for B9, the entry is “no binding (tested: 100 nM)”.
The same measure, in the same setting: as for B10, the entry is “no binding (tested: 100 nM)”.
Same read-out and setting: as for B11, the entry is “no binding (tested: 100 nM)”; as for B12, “no binding (tested: 100 nM)”; as for B13, “no binding (tested: 100 nM)”.
As for B14, the binding result is on record as “no binding (tested: 100 nM)”.
On the same count and under the same terms, as for B15, the entry is “no binding (tested: 100 nM)”.

A further experiment has as its target T4, huCD4-HIS (human, UniProt P01730 26-390, limits assumed).
T4 construct: Named only in the head of the Ibalizumab ELISA binning column; Neither the source nor the construct limits are told in this stretch; not shown: HIS tag
In words: ELISA binning, competitor Ibalizumab; 100 ng/mL huCD4-HIS, anti-HIS HRP detection; background 45, max binding 3000000.
With B1, the “Ibalizumab ELISA binning signal” value turned out to be 869000.
On to B2, for which the “Ibalizumab ELISA binning signal” value was 1.58e+06.
Still for that read-out and setting: as for B3, the figure is 1.7e+06.
Still for that read-out and setting: the same measure for B4: 1.42e+06; for B5: 2260.

A further experiment has as its target T1, human CD4 on cells (SKW3 cells; human …). In words: FACS confirmation, supernatant on human PBMCs, anti-mFc 647, CD4+ gate.
For B1, the “PBMCs CD4+ gate RL1 Binding” value is 246000.
As to B2, the “PBMCs CD4+ gate RL1 Binding” value worked out at 179000.
For B3, the “PBMCs CD4+ gate RL1 Binding” value was 303000.
The same measure, in the same setting: as for B4, the figure is 225000.
For the molecule B5, the “PBMCs CD4+ gate RL1 Binding” value came to 292000.

Another experiment has the same target. As to the kind of experiment: FACS confirmation, supernatant on SKW3 WT cells, anti-mFc 647; background gMFI 3300.
As for B1, the “gMFI, SKW3 WT anti-mFc 647” value amounted to 18600 gMFI.
With B2, the “gMFI, SKW3 WT anti-mFc 647” value worked out at 13000 gMFI.
With B3, the “gMFI, SKW3 WT anti-mFc 647” value came to 23100 gMFI.
Take B4: the “gMFI, SKW3 WT anti-mFc 647” value is 23000 gMFI.
The same measure, in the same setting: the same measure for B5: 22000 gMFI.

For a further experiment the target is unchanged. In words: FACS primary screen, non-clonal supernatant; SKW3 vs SKW3 CD4 KO cells, anti-human Kappa FITC detection.
Take B1: the “SKW3 WT vs KO, anti-hKappa-FITC (ratio)” value was 1.6 ratio.
On the same count and under the same terms, the same measure for B2: 1.4 ratio.
Same read-out and setting: as for B3, the figure is 1.6 ratio.
On the same count and under the same terms, as for B4, the figure is 1.6 ratio; as for B5, 1.9 ratio.

The target is the same in another experiment. In words: FACS binning on SKW3 cells after supernatant; competitor OKT4-A488; background 2163, max binding 8200.
Regarding B1, the “OKT4 A488 signal (FACS binning)” value was 9770.
With B2, the “OKT4 A488 signal (FACS binning)” value was found to be 9090.
Still for that read-out and setting: the same measure for B3: 9590.
On the same count and under the same terms, as for B4, the figure is 10400; as for B5, 12700.

For another experiment the target is unchanged. In words: FACS confirmation, supernatant on human PBMCs, anti-mFc 647.
For the molecule B1, the “PBMCs CD4+ percent bound of viable” value stood at 31%.
In the case of B2, the “PBMCs CD4+ percent bound of viable” value is 33%.
Same read-out and setting: the same measure for B3: 35%.
Same read-out and setting: as for B4, the figure is 30%; as for B5, 29%.
